One data set deals with T1, Nuclease M E83R E83R.
T1 sequence: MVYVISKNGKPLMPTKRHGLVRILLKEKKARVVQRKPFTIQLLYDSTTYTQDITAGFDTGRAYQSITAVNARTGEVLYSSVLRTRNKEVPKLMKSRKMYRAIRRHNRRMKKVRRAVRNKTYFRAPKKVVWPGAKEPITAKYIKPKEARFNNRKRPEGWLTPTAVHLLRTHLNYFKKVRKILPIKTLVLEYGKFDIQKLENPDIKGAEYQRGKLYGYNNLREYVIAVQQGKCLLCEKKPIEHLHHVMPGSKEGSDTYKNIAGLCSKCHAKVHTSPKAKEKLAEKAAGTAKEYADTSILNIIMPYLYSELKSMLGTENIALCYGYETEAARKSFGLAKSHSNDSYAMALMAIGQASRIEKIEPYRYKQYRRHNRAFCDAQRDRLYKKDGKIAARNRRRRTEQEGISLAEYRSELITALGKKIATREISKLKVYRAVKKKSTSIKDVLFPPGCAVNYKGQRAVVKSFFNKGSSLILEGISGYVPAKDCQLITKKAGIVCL
Description: cell_activity. As to conditions: PAM TTAAA; HEK293T.

Another data set concerns T2, Nuclease M L92R L92R.
T2 sequence: T1 sequence with R83E, L92R
Description: cell_activity. As to conditions: PAM TTAAA; HEK293T.

The next data set concerns the target T3, Nuclease K D582R/G42R (D582R,G42R).
T3 chain: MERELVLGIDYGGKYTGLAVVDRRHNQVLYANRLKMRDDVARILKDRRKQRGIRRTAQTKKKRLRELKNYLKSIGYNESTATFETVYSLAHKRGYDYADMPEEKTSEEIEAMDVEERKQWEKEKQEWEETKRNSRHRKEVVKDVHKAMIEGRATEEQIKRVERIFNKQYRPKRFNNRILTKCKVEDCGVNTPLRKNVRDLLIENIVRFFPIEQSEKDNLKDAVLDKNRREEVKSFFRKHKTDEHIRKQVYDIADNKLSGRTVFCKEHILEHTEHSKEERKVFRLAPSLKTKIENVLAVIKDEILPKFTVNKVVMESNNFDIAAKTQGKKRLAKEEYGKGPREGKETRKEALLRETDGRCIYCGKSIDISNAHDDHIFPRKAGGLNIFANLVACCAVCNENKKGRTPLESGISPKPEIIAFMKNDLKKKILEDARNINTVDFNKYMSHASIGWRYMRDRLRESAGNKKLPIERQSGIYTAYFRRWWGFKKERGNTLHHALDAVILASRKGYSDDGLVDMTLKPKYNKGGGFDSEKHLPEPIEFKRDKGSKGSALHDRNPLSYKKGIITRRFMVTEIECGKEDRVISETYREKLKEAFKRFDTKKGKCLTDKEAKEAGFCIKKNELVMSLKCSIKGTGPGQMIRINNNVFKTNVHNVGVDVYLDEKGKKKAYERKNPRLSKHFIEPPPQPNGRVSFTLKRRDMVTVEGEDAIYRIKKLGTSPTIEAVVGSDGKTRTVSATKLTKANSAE
The data set can be described thus: cell_activity; PAM NGG; HEK293T. As to conditions: tags: N- and C-terminal NLS. The procedure: (§1) This Example describes indel assessment on mammalian targets using nuclease variants of Nuclease K comprising two or more substitutions identified as increasing indel activity in Example 8. 71 combination Nuclease K variants were tested.
(§2) Each Nuclease K variant and RNA guide (see Table 19) was cloned as described in Example 8. HEK293T cells were further transfected, followed by NGS analysis, as described in Example 8. For each target, indel ratios, referring to the percentage of NGS reads comprising indels, were calculated for the reference Nuclease K (SEQ ID NO: 65) and for each Nuclease K variant. The indel ratios shown in Table 20 were calculated as the average of two bioreplicates, each of which contained two technical replicates.

Data set [1] deals with T4, Nuclease K D582R/I53R/T734R (D582R,I53R,T734R).
T4 chain: T3 chain with R42G, I53R, T734R
The data set can be described thus: cell_activity; PAM NGG; HEK293T. As to conditions: tags: N- and C-terminal NLS. How it is done: as §1, §2

Positions count from the first letter of the chain named.

For the molecule “GAGCCUGGUCCAUGGAGAGUGUCAACUACCCCCGUCUAAAGACGGAGGCAUGAGGUUUCGUAACCAAGUGUUGUACCUGCGGGUACAGUAGUUGAACAGGCGGCGAUGCGGCUGGGCACUCCAGGAUGCCACUCCCAGUCCCGGACACUGCCGACGAGCCGCAUCAAGCCGGGGGAGACCAACCGGCUAACGAUAGCCGAGCAAUUACCUAAAAAGAGGUGCAAAGGAAAUGGUAU / GAGCCTGGTCCATGGAGAGT / ACTCTCCATGGACCAGGCTC [Nuclease M VEGFA-T5 guide ; Nuclease M VEGFA-T5 target]”, the results for the binding signal (fold vs Nuclease M) in the data set on Nuclease M E83R E83R and with Nuclease M L92R L92R were 1.71 and 1.81, respectively.

B1: Nuclease K AAVS1-T3 guide ; AAVS1-T3 target (ssRNA ; dsDNA)
RNA: UUGUGAGAAUGGUGCGUCCUGUUACAGUUAAGGCUCUGAAAAGAGCCUUAAUUGUAAAACGCCUAUACAGUGAAGGGAUAUACGCUUGGGUUUGUCCAGCCUGAGCCUCUAUGCCAGAAAUGGCGCCUUCAUCGUGGGUUAGGACAUUUAAAUUUAAAAACUAUUCAGCACUGUUUGCUCUUGUCAGCUUGGUGGCAGA
DNA 1: TTGTGAGAATGGTGCGTCCT
DNA 2: AGGACGCACCATTCTCACAA
Take B1: the activity in the data set with Nuclease K D582R/G42R was found to be 0.221 indel ratio; in data set [1], 0.27 indel ratio.

B2: Nuclease K EMX1-T7 guide ; EMX1-T7 target (ssRNA ; dsDNA)
RNA: CUUUAGCAAGGGACUAUUCAGUUACAGUUAAGGCUCUGAAAAGAGCCUUAAUUGUAAAACGCCUAUACAGUGAAGGGAUAUACGCUUGGGUUUGUCCAGCCUGAGCCUCUAUGCCAGAAAUGGCGCCUUCAUCGUGGGUUAGGACAUUUAAAUUUAAAAACUAUUCAGCACUGUUUGCUCUUGUCAGCUUGGUGGCAGA
DNA 1: CTTTAGCAAGGGACTATTCA
DNA 2: TGAATAGTCCCTTGCTAAAG
As for B2, the results for the activity (with Nuclease K D582R/G42R; in data set [1]) were 0.231 indel ratio and 0.25 indel ratio, respectively.

Source of the values: patent publication US20260275311, “CRISPR NUCLEASE POLYPEPTIDES AND GENE EDITING SYSTEMS COMPRISING SUCH” (ARBOR BIOTECHNOLOGIES, INC., published 2026).
